# Target: FcαRI (CD89) (human (endogenous in primary monocytes)) (UniProt P24071)
# Chain of UniProt P24071 (P24071 22-287): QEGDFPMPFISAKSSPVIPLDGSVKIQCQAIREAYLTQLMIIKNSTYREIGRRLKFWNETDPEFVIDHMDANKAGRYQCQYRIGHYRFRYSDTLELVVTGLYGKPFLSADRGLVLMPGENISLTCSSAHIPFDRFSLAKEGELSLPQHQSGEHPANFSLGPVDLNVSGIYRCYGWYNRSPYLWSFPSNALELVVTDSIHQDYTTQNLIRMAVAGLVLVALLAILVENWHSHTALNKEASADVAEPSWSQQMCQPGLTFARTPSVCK
substance,measurement,value
CH31 dIgA2 (antibody),percent blocking of IgA-mediated phagocytosis of 0.2 μm ConSgp140-conjugated beads by primary monocytes pre-incubated with 5 μg/ml anti-human CD89 mAb (MIP8a),91.5%
same,"percent blocking of IgA-mediated phagocytosis of ConSgp140CFI-conjugated 1 μm beads by primary monocytes pre-incubated with anti-human CD89 mAb (MIP8a) at 1, 5 and 25 μg/ml (70%, 74%, 78%)",78%

# Source: paper PMC5007037
